# Test system: phiC31 integrase (Streptomyces phage phiC31?)
# Assay: cell_activity
# Details: E. coli, 1% L-arabinose, 32 C, 60-120 min, resuspended 4:1 in fresh LB
substance,measurement,value
phiC31 attB/attP sites flanking expression cassette in pBAD.phiC31.RHB,activity (% recombination),> 97
